Measured values as given in paper PMC10495343.

Columns and labels:
[1] = biological target: collagen I (UniProt P02452); test: SPR; Biacore X100; collagen I or collagen III immobilised by amine coupling on a CM5 chip (around 1000 RU); CBD-SA-IL-4 flowed 90 s (collagen I) or 30 s (collagen III) at 30 μl/min; Langmuir 1:1 fit with drifting baseline
[2] = biological target: collagen III (UniProt P02461); test: as above
[3] = biological target: collagen I (UniProt P02452); test: SPR

Sequence of collagen I (P02452 162-1218, chain 1 of 2): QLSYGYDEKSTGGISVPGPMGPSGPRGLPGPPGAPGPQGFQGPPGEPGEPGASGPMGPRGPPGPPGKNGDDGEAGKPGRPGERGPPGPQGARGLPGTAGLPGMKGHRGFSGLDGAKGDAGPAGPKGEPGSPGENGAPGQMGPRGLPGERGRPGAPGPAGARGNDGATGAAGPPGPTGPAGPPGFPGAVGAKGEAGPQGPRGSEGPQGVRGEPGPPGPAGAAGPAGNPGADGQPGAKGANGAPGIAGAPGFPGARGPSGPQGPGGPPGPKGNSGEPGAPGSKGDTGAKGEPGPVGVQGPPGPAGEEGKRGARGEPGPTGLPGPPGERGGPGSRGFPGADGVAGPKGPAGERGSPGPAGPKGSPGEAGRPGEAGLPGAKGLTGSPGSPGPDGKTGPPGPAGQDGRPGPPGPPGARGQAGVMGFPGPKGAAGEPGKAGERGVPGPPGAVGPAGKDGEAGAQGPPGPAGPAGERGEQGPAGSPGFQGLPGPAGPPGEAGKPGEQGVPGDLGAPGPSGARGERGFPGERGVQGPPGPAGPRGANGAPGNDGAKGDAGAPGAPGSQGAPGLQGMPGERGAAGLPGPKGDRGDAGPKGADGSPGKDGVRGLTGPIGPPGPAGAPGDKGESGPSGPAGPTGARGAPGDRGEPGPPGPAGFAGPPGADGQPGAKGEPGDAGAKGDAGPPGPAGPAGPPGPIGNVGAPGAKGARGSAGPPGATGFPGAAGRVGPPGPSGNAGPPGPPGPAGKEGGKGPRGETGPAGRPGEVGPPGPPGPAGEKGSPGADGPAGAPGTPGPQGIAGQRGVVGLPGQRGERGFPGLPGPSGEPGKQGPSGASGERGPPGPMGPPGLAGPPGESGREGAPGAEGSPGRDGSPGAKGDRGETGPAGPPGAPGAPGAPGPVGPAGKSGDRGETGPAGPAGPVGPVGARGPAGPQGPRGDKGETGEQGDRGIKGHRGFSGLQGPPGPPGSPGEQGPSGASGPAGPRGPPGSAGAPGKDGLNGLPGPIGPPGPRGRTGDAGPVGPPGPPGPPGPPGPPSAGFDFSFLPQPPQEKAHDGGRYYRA
Sequence of collagen I (P08123 80-1119, chain 2 of 2, further chain): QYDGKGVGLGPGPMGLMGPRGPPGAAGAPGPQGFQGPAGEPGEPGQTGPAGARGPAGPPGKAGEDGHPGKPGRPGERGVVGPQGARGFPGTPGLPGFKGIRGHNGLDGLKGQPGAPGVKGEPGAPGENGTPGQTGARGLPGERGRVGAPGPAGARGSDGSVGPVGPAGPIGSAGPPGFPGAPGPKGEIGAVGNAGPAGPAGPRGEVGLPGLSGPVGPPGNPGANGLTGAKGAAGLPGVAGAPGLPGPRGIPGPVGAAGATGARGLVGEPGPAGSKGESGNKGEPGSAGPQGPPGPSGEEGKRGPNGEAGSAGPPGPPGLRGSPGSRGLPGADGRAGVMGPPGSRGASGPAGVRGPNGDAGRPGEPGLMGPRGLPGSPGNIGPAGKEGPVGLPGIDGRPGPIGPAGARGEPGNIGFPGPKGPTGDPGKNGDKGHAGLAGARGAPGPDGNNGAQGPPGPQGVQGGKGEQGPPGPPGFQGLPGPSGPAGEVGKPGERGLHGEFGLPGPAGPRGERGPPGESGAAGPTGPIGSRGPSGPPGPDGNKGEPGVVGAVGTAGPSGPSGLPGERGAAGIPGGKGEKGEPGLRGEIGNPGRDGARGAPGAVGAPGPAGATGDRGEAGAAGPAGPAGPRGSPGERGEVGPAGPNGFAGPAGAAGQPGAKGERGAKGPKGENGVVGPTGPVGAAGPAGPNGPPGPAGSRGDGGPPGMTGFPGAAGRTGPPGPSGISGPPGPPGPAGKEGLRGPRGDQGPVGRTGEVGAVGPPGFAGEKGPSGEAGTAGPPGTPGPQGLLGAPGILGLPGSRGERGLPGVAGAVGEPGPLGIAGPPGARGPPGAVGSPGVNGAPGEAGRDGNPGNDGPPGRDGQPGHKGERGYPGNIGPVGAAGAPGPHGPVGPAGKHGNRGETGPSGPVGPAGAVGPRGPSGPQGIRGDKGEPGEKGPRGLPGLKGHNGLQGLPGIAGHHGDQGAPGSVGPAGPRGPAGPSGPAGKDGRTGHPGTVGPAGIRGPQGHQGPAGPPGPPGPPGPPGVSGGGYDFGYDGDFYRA
Sequence of collagen III (P02461 154-1221): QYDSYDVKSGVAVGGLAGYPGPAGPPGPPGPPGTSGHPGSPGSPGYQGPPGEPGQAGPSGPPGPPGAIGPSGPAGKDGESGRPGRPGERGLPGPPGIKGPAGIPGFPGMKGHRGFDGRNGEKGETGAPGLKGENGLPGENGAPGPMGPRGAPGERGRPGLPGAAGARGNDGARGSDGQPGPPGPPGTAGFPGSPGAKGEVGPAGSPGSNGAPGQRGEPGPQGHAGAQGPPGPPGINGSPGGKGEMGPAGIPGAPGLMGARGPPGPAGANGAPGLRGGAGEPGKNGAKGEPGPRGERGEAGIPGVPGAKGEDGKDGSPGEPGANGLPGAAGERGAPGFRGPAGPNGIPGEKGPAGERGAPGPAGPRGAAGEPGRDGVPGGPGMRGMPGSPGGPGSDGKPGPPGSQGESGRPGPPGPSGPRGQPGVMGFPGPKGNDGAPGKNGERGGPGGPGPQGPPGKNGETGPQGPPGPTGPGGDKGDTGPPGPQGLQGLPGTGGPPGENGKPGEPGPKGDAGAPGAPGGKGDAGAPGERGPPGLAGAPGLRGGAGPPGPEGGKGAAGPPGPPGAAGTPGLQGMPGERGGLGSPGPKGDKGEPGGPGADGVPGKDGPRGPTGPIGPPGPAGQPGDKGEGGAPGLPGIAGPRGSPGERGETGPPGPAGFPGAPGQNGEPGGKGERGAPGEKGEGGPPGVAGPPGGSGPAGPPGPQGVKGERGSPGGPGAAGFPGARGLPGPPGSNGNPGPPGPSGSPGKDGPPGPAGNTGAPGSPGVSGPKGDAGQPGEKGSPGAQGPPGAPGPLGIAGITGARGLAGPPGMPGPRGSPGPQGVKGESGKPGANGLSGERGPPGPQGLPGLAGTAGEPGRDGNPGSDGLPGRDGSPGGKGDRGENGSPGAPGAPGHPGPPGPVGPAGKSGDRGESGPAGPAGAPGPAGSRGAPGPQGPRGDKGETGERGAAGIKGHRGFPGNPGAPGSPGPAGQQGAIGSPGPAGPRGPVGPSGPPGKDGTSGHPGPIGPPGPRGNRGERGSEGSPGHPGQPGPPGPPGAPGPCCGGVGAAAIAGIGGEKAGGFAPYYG

| Substance | Kd [1] | Kd [2] | koff [3] |
| --- | --- | --- | --- |
| collagen-binding, serum albumin-fused IL-4 variant (CBD-SA-IL-4) | 8 nM | 37 nM |  |
| collagen-binding, serum albumin-fused IL-4 variant (CBD-SA-IL-4) (from UniProt P04275) |  |  | 0.0026 s⁻¹ |
